What all share (assay): SPR, 37 C, mutein captured, CGRP analyte
In general terms: SPR reads the build-up and loss of mass on a sensor chip optically.

The target of assay [1] is T1, rat beta CGRP (SEQ ID NO: 83) (rat, not fully specified).
T1 construct: also called rat βCGRP; rat β-CGRP
T1 peptide: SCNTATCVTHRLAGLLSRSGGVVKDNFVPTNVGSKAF
The procedure:
(§1) The Biotin CAPture Kit (GE Healthcare) was used to immobilize biotinylated lipocalin muteins to a chip surface. Muteins were biotinylated using standard NHS chemistry. Undiluted Biotin CAPture Reagent (streptavidin conjugated with ss-DNA oligo) was captured on a Sensor Chip CAP with the pre-immobilized complementary ss-DNA oligo. Thereafter, biotinylated muteins at 1 μg/mL were applied for 300 s at a flow rate of 5 μL/min.
(§2) CGRP species were applied in three concentrations of 30 nM, 3 nM and 0.3 nM at a flow rate of 30 μL/min or in a single concentration of 25 nM per cycle as shown in FIG. 2. The dilutions were injected with association times of 180 s and dissociation times of 5400 sec to obtain ka and kd information. Regeneration of the chip surface was achieved by injecting 6 M Guanidinium-HCl+0.25 M NaOH (120 s) with a flow rate of 10 μL/min. Injection of regeneration solutions was followed by an extra wash step with HBS-EP+(1×; BR-1006-69; GE Healthcare) running buffer and a stabilization period of 120 s.
(§3) The data were double-referenced by subtraction of the corresponding signals measured for the control channel (loaded with Biotin CAPture reagent only) and by subtraction of buffer injections from the binding responses. Association rate constant ka and dissociation rate constant kd for the binding reaction were determined using Biacore T200 Evaluation Software V2.0 for data processing and kinetic fitting. The data were globally fit with 1:1 binding model.

Assay [2] has as its target T2, human alpha CGRP (SEQ ID NO: 80) (human, not fully specified).
T2 construct: also called human αCGRP; hαCGRP
T2 peptide: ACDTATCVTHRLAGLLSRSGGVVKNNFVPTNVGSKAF
Here is the method: as §1, §2, §3

Assay [3] concerns the target T3, rat alpha CGRP (SEQ ID NO: 82) (rat).
T3 construct: also called rat αCGRP; rat α-CGRP
T3 peptide: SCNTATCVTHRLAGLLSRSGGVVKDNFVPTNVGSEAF
Here is the method: as §1, §2, §3

Assay [4] concerns the target T4, human beta CGRP (SEQ ID NO: 81) (human, not fully specified).
T4 construct: also called human βCGRP; hβCGRP
T4 peptide: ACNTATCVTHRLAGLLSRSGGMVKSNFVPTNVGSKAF
Here is the method: as §1, §2, §3

B1: lipocalin mutein SEQ ID NO: 7 (designed binder)
chain: QDSTSDLIPAPPLSKVPLQQNFQDNQFHGKWYVVGWAGNTLLREDKDPIKMQATIYELKEDKSYNVTWVYFSEKRCNYHIETSVPGSQPGEFTLGTIKSYPGETSILVRVVSTNYNQHAMVFFKGVSQNREIFEITLYGRTKELTSELKENFIRFSKSLGLPENHIVFPVPIDQCIDGSAWSHPQFEK
notes: biotinylated by NHS chemistry for capture in SPR
The term Kd denotes the concentration at which binding is half-saturated. Low readings indicate higher affinity, high ones lower affinity. By koff is commonly meant a measure of how fast the partners let go of each other. Low readings indicate slow dissociation, high ones fast dissociation. As a reminder, the kon is the second-order rate constant of association. High values mean fast association, low ones slow association. Take B1: the Kd amounted to 0.091 nM in assay [1], 0.067 nM in assay [2], 0.3 nM in assay [3] and 0.036 nM in assay [4]. For the same molecule, the koff worked out at 0.000276 s⁻¹ in assay [1], 0.000249 s⁻¹ in assay [2], 0.000313 s⁻¹ in assay [3] and 0.000188 s⁻¹ in assay [4]. In addition, the kon in assay [1] was 3.04e+06 M⁻¹ s⁻¹; in assay [2], 3.74e+06 M⁻¹ s⁻¹; in assay [3], 1.04e+06 M⁻¹ s⁻¹; in assay [4], 5.21e+06 M⁻¹ s⁻¹.

B2: lipocalin mutein SEQ ID NO: 9 (designed binder)
chain: QDSTSDLIPAPPLSKVPLQQNFQDNQFHGKWYVVGWAGNTLLREDKDPIKMQATIYELKEDKSYDVTWVYLSEKKCNYHIETSVPGSQPGEFTLGTIKSYPGETSILVRVVSTNYNQHAMVFFKGMSQNREIFEITLYGRTKELASELKENFIRFSKSLGLPENHIVFPVPIDQCIDGSAWSHPQFEK
notes: as for B1
In the case of B2, the Kd in assay [1] turned out to be 0.075 nM; in assay [2], 0.044 nM; in assay [3], 0.26 nM; in assay [4] it was 0.027 nM. In addition, the koff in assay [1] came out at 0.000275 s⁻¹; in assay [2] it was 0.000257 s⁻¹; in assay [3] it was 0.000318 s⁻¹; in assay [4], 0.000181 s⁻¹. Also, the kon in assay [1] is 3.68e+06 M⁻¹ s⁻¹; in assay [2] it was 5.88e+06 M⁻¹ s⁻¹; in assay [3], 1.22e+06 M⁻¹ s⁻¹; in assay [4], 6.8e+06 M⁻¹ s⁻¹.

B3: lipocalin mutein SEQ ID NO: 12 (designed binder)
chain: QDSTSDLIPAPPLSKVPLQQNFQDNQFHGKWYVVGWAGNTLLREDKDPPKMQATIYELKEDRSYNVTWVYFSEKKCNYHIETSVPGSQPGEFTLGTIQSHPGETPILVRVVSTNYNQHAMVFFKGMGQNREIFEITLYGRTKELTSELKENFIRFSKSLGLPENHIVFPVPIDQCIDGSAWSHPQFEK
notes: as for B1
Consider B3, for which the Kd was 0.176 nM in assay [1], 0.15 nM in assay [2], 0.45 nM in assay [3] and 0.095 nM in assay [4]. In addition, the koff in assay [1] stood at 0.000205 s⁻¹; in assay [2], 0.000162 s⁻¹; in assay [3] it was 0.000299 s⁻¹; in assay [4], 0.000104 s⁻¹. The kon in assay [1] was 1.17e+06 M⁻¹ s⁻¹; in assay [2], 1.08e+06 M⁻¹ s⁻¹; in assay [3], 661000 M⁻¹ s⁻¹; in assay [4], 1.1e+06 M⁻¹ s⁻¹.

B4: lipocalin mutein SEQ ID NO: 10 (designed binder)
chain: QDSTSDLIPAPPLSKVPLQQNFQDNQFHGKWYVVGWAGNTLLREDKNPTKMQATIYELKEDKSYNATWVYLSEKKCNYHIETSVPGSQPGEFTLGTTKSYPGETPILVRVVSTNYNQHAMVFFKGVSQNREIFEITLYGRTKELTSELKENFIRFSKSLGLPENHIVFPVPIDQCIDGSAWSHPQFEK
notes: as for B1
As to B4, the Kd in assay [1] stood at 0.206 nM; in assay [2], 0.163 nM; in assay [3], 0.55 nM; in assay [4] it was 0.076 nM. Further, the koff in assay [1] stood at 0.000224 s⁻¹; in assay [2] it was 0.000205 s⁻¹; in assay [3], 0.000307 s⁻¹; in assay [4], 0.000162 s⁻¹. The kon was 1.08e+06 M⁻¹ s⁻¹ in assay [1], 1.26e+06 M⁻¹ s⁻¹ in assay [2], 559000 M⁻¹ s⁻¹ in assay [3] and 2.14e+06 M⁻¹ s⁻¹ in assay [4].

B5: lipocalin mutein SEQ ID NO: 28 (designed binder)
chain: QDSTSDLIPAPPLSKVPLQQNFQDNQFHGKWYVVGWAGNTLLREDKDPIKMQAIIYELKEDRSYNVTWVYFSEKKCNYHIETFVPGSQPGEFTLGTIKSYPGETPILVRVMSTNYNQHAMVFFKGVNQNREIFEIILYGRTKELTNELKENFIRFSKSLGLPENHIVFPVPIDQCIDGSAWSHPQFEK
notes: as for B1
For the molecule B5, the Kd in assay [1] came out at 0.032 nM; in assay [2] it was 0.031 nM; in assay [3], 0.049 nM; in assay [4] it was 0.014 nM. In addition, the koff in assay [1] amounted to 5.48e-05 s⁻¹; in assay [2] it was 4.99e-05 s⁻¹; in assay [3] it was 6.88e-05 s⁻¹; in assay [4] it was 3.41e-05 s⁻¹. For the same molecule, the kon in assay [1] came to 1.72e+06 M⁻¹ s⁻¹; in assay [2], 1.59e+06 M⁻¹ s⁻¹; in assay [3] it was 1.41e+06 M⁻¹ s⁻¹; in assay [4], 2.52e+06 M⁻¹ s⁻¹.

B6: lipocalin mutein SEQ ID NO: 8 (designed binder)
chain: QDSTSDLIPAPPLSKVPLQQNFQDNQFHGKWYVVGWAGNTLRREDKNPTKMQATIYELKEDKSYNVTWVYFSEKKCNYHIETSVPGSQPGEFTLGTIKSYPGETSILVRVVSTNYNQHAMVFFKGVSQNREIFEITLYGRTKELTSELKENFIRFSKSLGLPENHIVFPVPIDQCIDGSAWSHPQFEK
notes: as for B1
For the molecule B6, the Kd in assay [1] was 0.349 nM; in assay [2], 0.288 nM; in assay [3], 1.14 nM; in assay [4] it was 0.143 nM. For the same molecule, the koff was 0.000636 s⁻¹ in assay [1], 0.000595 s⁻¹ in assay [2], 0.000837 s⁻¹ in assay [3] and 0.000529 s⁻¹ in assay [4]. The kon in assay [1] was 1.82e+06 M⁻¹ s⁻¹; in assay [2] it was 2.07e+06 M⁻¹ s⁻¹; in assay [3], 734000 M⁻¹ s⁻¹; in assay [4], 3.7e+06 M⁻¹ s⁻¹.

B7: lipocalin mutein SEQ ID NO: 13 (designed binder)
chain: QDSTSDLIPAPPLSKVPLQQNFQDNQFHGKWYVVGRAGNEELREDKDPQKMEATIYELKEDKSYNVTDVGFSEKKCIYVIHTFVPGSQPGEFTLGNIKSYPGVTSALVRVVSTNYNQHAMVFFKVVKQNRELFEITLYGRTKELTSELKENFIRFSKSLGLPENHIVFPVPIDQCIDGSAWSHPQFEK
notes: as for B1
In the case of B7, the Kd came out at 0.111 nM in assay [1], 0.075 nM in assay [2], 0.28 nM in assay [3] and 0.031 nM in assay [4]. Also, the koff came to 0.00035 s⁻¹ in assay [1], 0.000436 s⁻¹ in assay [2], 0.000525 s⁻¹ in assay [3] and 0.000366 s⁻¹ in assay [4]. Besides, the kon worked out at 3.16e+06 M⁻¹ s⁻¹ in assay [1], 5.82e+06 M⁻¹ s⁻¹ in assay [2], 1.85e+06 M⁻¹ s⁻¹ in assay [3] and 1.18e+07 M⁻¹ s⁻¹ in assay [4].

B8: lipocalin mutein SEQ ID NO: 21 (designed binder)
chain: QDSTSDLIPAPPLSKVPLQQNFQDNQFHGKWYVVGRAGNDALREDKDPEKMEATIYELKEDKSYNVTDVGFVQKKCMYVIHTFVPGSQPGEFTLGNIKSYPGVTSALIRVVNTNYNQHAMVFVKLVKQNRELFEITLYGRTKELTSELKENFIRFSKSLGLPENHIVFPVPIDQCIDGSAWSHPQFEK
notes: as for B1
Turning to B8, the Kd in assay [1] is 0.018 nM; in assay [2], 0.014 nM; in assay [3] it was 0.053 nM; in assay [4], 0.004 nM. Moreover, the koff in assay [1] worked out at 2.36e-05 s⁻¹; in assay [2] it was 1.71e-05 s⁻¹; in assay [3], 3.7e-05 s⁻¹; in assay [4], 8.74e-06 s⁻¹. Moreover, the kon in assay [1] turned out to be 1.34e+06 M⁻¹ s⁻¹; in assay [2], 1.21e+06 M⁻¹ s⁻¹; in assay [3], 703000 M⁻¹ s⁻¹; in assay [4] it was 2.36e+06 M⁻¹ s⁻¹.

B9: lipocalin mutein SEQ ID NO: 16 (designed binder)
chain: QDSTSDLIPAPPLSKVPLQQNFQDNQFHGKWYVVGRAGNDELREDKDPEKMEATIYELKEDKSYNVTDVGFVQKKCMYVIHTFVPGSQPGEFTLGNIKSYPGVTSGLVRVVSTNYNQHAMVFFKVVRQNRELFEITLYGRTKELTSELKENFIRFSKSLGLPENHIVFPVPIDQCIDGSAWSHPQFEK
notes: as for B1
For B9, the Kd in assay [1] came out at 0.097 nM; in assay [2], 0.052 nM; in assay [3], 0.28 nM; in assay [4], 0.036 nM. Also, the koff in assay [1] was 0.000229 s⁻¹; in assay [2] it was 0.000259 s⁻¹; in assay [3], 0.000398 s⁻¹; in assay [4], 0.000364 s⁻¹. For the same molecule, the kon turned out to be 2.37e+06 M⁻¹ s⁻¹ in assay [1], 5.02e+06 M⁻¹ s⁻¹ in assay [2], 1.41e+06 M⁻¹ s⁻¹ in assay [3] and 1.01e+07 M⁻¹ s⁻¹ in assay [4].

Source of the values: patent publication US20190338002A1 (Pieris, published 2019).
